Molecular target: T1, His6-Fur (Escherichia coli) (UniProt P0A9A9)
T1 sequence: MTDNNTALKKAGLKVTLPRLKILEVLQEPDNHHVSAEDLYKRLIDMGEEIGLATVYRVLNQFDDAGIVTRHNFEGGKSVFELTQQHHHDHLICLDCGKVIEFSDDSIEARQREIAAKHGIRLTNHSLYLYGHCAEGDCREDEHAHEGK
Experiment: EMSA
Conditions: EMSA: 10 mM Tris-HCl pH 7.5, 50 mM KCl, 0.5 mM DTT, 0.05 mg/ml BSA, 4% glycerin, 1 mM MgCl2, 0.1 mM MnCl2, 50 ug/ml poly(dI-dC), 10 ng probe, temperature not …

## GCGATATCACCGGTATAAGGGGCCAGCAGTTCCGCAGGGTCGAACTCTGCCAGATCTGCCAGCGCAACGAAGTTTTGCACCACCTGAATATCGCCCTGCACTTCCAGCTCACCACTGCGAATCAGTGCGGTAAGCTGCTGGCGATCGCGAAGTTTCGGCAACACACTGGCGTAGGCGATAACGGTGCA (double strand) [Biotin-PesrE (Biotin-S1V3)]
  binding: binds
